Experimental data as given in US20220205015A1 (NANYANG TECHNOLOGICAL UNIVERSITY, published 2022).
Read-outs that look alike come from different tables or passages of the source. Where no end group is shown, it is not given here.

Assays:
[1] = system: T1, LL37ARRA (CLLGDFARRAKEKIG)
T1 sequence: CLLGDFARRAKEKIG

[2] = biological target: T2, LL37YRRA (CLLGDFYRRAKEKIG)
T2 chain: CLLGDFYRRAKEKIG

[3] = biological target: T3, LL37FRRA (CLLGDFFRRAKEKIG)
T3 chain: CLLGDFFRRAKEKIG

[4] = biological target: T4, LL37FRRY (CLLGDFFRRYKEKIG)
T4 chain: CLLGDFFRRYKEKIG

[5] = biological target: T5, LL37FRRV (CLLGDFFRRVKEKIG)
T5 chain: CLLGDFFRRVKEKIG

[6] = biological target: T6, LL37ARRA (CLLGDFARRAKEKIG)
T6 chain: CLLGDFARRAKEKIG

[7] = biological target: T7, OmpT (omptin outer membrane protease of Escherichia coli), recombinant, reconstituted in detergent micelles (Escherichia coli, UniProt P09169 21-317); assay: cell-based or functional assay
T7 sequence: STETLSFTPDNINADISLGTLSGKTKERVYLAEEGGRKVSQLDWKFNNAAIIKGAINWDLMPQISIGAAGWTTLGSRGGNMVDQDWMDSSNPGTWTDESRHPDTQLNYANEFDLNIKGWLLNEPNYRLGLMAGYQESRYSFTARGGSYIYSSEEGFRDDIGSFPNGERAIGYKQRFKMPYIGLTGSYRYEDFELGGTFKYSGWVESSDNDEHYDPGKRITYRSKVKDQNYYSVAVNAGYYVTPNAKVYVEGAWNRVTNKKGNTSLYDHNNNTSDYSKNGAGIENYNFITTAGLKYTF

PgtE (omptin protease, present on pathogenic Salmonella typhi)
proteolytic activity, measured as the change in PT6 fluorescence with time [1]: OmpT exhibits a higher preference for LL37ARRA (SEQ ID NO: 11) than does PgtE

B1: OmpT (omptin outer membrane protease of Escherichia coli), recombinant, reconstituted in detergent micelles (protein)
chain: T7 sequence
rate of cleavage by OmpT [2]: cleaved by the protease (OmpT) much more rapidly than the LL37FRRY peptide substrate used in Examples 1-5
time to full cleavage by OmpT [2]: fully cleaved by OmpT in less than 20 min
rate of cleavage by OmpT [3]: cleaved by the protease (OmpT) much more rapidly than the LL37FRRY peptide substrate used in Examples 1-5
time to full cleavage by OmpT [3]: fully cleaved by OmpT in less than 20 min
rate of cleavage by OmpT [4]: cleaved by the protease (OmpT) much more rapidly than the LL37FRRY peptide substrate used in Examples 1-5
SAMDI-MS screen of a peptide array for cleavage by omptin proteases [5]: 400 times better then original peptide
cleavage, confirmed by MALDI-TOF [5]: it was cleaved at the dibasic site (-R8-R9-) to yield two short fragments of eight and seven residues
proteolytic activity, measured as the change in PT6 fluorescence with time [6]: OmpT exhibits a higher preference for LL37ARRA (SEQ ID NO: 11) than does PgtE

B2: LL37FRRA (CLLGDFFRRAKEKIG) (peptide)
peptide: CLLGDFFRRAKEKIG
colour of PT6 under UV-A light after incubation with OmpT [7]: ≤ 10 min
incubation time with OmpT for an almost complete reduction in PT6 fluorescence [7]: < 20 min

B3: LL37FRRY (CLLGDFFRRYKEKIG) (peptide)
peptide: CLLGDFFRRYKEKIG
colour of PT6 under UV-A light after incubation with OmpT [7]: ≤ 10 min
incubation time with OmpT for an almost complete reduction in PT6 fluorescence [7]: < 20 min

B4: LL37YRRA (CLLGDFYRRAKEKIG) (peptide)
peptide: CLLGDFYRRAKEKIG
colour of PT6 under UV-A light after incubation with OmpT [7]: ≤ 10 min
incubation time with OmpT for an almost complete reduction in PT6 fluorescence [7]: < 20 min

B5: LL37FRRV (CLLGDFFRRVKEKIG) (peptide)
peptide: CLLGDFFRRVKEKIG-NH2
incubation time with OmpT for an almost complete reduction in PT6 fluorescence [7]: > 40 min
